In PMC12109978:

B1: human tropomodulin 1 (Tmod1) (natural protein)
chain: MSYRRELEKYRDLDEDEILGALTEEELRTLENELDELDPDNALLPAGLRQKDQTTKAPTGPFKREELLDHLEKQAKEFKDREDLVPYTGEKRGKVWVPKQKPLDPVLESVTLEPELEEALANASDAELCDIAAILGMHTLMSNQQYYQALSSSSIMNKEGLNSVIKPTQYKPVPDEEPNSTDVEETLERIKNNDPKLEEVNLNNIRNIPIPTLKAYAEALKENSYVKKFSIVGTRSNDPVAYALAEMLKENKVLKTLNVESNFISGAGILRLVEALPYNTSLVEMKIDNQSQPLGNKVEMEIVSMLEKNATLLKFGYHFTQQGPRLRASNAMMNNNDLVRKRRLADLTGPIIPKCRSGV

Legend:
[1] = biological target: human tropomodulin 4 (Tmod4) (human) (UniProt Q9NZQ9); test: pull-down; His-tagged Tmod4 (6 µM) incubated 20 min with 3 to 24 µM Tpm in 30 mM HEPES-Na, 200 mM NaCl, pH 7.3, then captured on IMAC Ni-charged resin, eluted with 500 mM imidazole; SDS-PAGE, densitometry
[2] = biological target: human tropomodulin 1 (Tmod1) (human) (UniProt P28289); test: SEC; Superose 6 Increase 10/300 GL, 50 mM HEPES-Na pH 7.3, 150 mM NaCl, 1 mM DTT, 0.5 mL/min, 280 nm; 30 µM Tpm and Tmod1, or 26 µM Tpm and 13 µM Tmod4; single proteins and mixtures
[3] = biological target: human tropomyosin Tpm1.1 with Ala-Ser N-terminal extension (human)

Chain of UniProt Q9NZQ9 (Q9NZQ9 whole entry): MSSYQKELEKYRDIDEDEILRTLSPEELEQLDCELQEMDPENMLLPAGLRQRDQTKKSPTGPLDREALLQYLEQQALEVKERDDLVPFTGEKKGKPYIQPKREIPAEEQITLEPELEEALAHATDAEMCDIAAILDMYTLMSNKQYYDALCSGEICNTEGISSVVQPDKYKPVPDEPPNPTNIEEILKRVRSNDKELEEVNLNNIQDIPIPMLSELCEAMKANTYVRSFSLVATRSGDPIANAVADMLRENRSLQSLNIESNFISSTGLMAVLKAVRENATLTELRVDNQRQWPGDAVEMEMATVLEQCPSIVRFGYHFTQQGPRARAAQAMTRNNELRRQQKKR

Row | Molecule | Tpm/Tmod ratio at which saturation is reached (Tpm/Tmod ratio) [1] | stoichiometry N (Tpm1.1 per Tmod1) [2] | decrease of the sliding velocity of thin filaments containing Tpm1.1 over sheep ventricular myosin at pCa 5.2 by 500 nM Tmod1 [3] [%]
1 | human tropomyosin Tpm1.2 with Ala-Ser N-terminal extension (natural protein) | 2.5 | – | –
2 | human tropomyosin Tpm1.1 with Ala-Ser N-terminal extension (natural protein) | 3 | 2 | –
3 | B1 | – | – | 30
